Here are results for one molecule from patent publication US20250145716A1 (RAKUTEN MEDICAL, published 2025).

Experiment [1] concerns the target T1, human PD-L1 expressed on cells (human, UniProt Q9NZQ7 19-290). As to the kind of experiment: cell-based or functional assay.
Experiment [2] concerns the target T2, 6xHis-tagged huPD-L1 (human, UniProt Q9NZQ7 19-238).
T2 construct: also called human PD-L1 (RD Systems 9049-B7); extracellular domain of human PD-L1 fused to a His tag; not shown: 6xHis tag
Kind of experiment: ELISA, plate-coated 6xHis huPD-L1, OD 450 nm. The method, then: (§1) Hybridoma supernatants were tested for binding to huPD-L1, cyPD-L1, and muPD-L1 by ELISA. Briefly, 30 μL 6xHis-tagged huPD-L1, cyPD-L1, or muPD-L1 (1 μg/mL in PBS) were immobilized in wells of a 96-well assay plate overnight at 4° C. After washing and blocking steps, 30 μL of antibody supernatant were added to the plate and incubated at room temperature for 1 hr. Bound human antibody was detected using horseradish peroxidase (HRP)-conjugated goat anti-human Fc (Invitrogen Cat. No. 109-035-097; diluted 1:5000) or goat anti-mouse Fc HRP (Invitrogen Cat. No. 115-035-071) as a control. Bound antibody was detected with 1-Step Ultra™ TMB-ELISA Substrate (ThermoFisher Scientific Cat. No. 34029). When the reaction was complete the reaction was stopped, and the plate was read at 450 nm.
Anti-PD-L1 antibodies, described in Example 1A and manufactured substantially as described in Example 1B, were tested for to huPD-L1 and cyPD-L1 by ELISA substantially as described in Example 1A, using 12 dilutions of antibody ranging from 1 ng/ml to 3 mg/mL.
(An ELISA detects its analyte on a solid surface through an enzyme-linked reagent.)

In experiment [3] the target is T1, human PD-L1 expressed on cells. As to the kind of experiment: flow cytometry, PD-L1-expressing CHO cells, MFI (FITC). The method, then:
Wild-type (wt) Chinese hamster ovary (CHO) cells (ATCC) and CHO cells engineered to express huPD-L1 (BPS Bioscience) were seeded at 200,000 cells in 50 μL FACS buffer (PBS containing 1% FBS and 5 mM EDTA) per well of a 96-well plate. Cell viability was assessed by adding 50 μL 2×Zombie Violet (BioLegend). Dead cell controls were also prepared and 2×Zombie violet was added. After incubating 20-30 minutes at room temperature, protected from light, 150 μL FACS buffer were added to each well. The plates were centrifuged, and the supernatant was aspirated. […] The plates were incubated 30 minutes on ice, protected from light. 150 μL FACS buffer were then added to each well and the plate was centrifuged. The supernatant was removed and the cells were washed three times in 200 μL FACS buffer. […] The cells were incubated 30 minutes on ice, protected from light. 150 μL FACS buffer were then added to each well and the plate was centrifuged. Supernatant was removed and the cells were washed twice with 200 μL FACS buffer. The cells were then resuspended in FACS buffer and analyzed by CytoFLEX using the appropriate channels. After gating for whole, single, live cells, the MFI in the APC channel (or FITC channel for human control samples) was normalized to the signal from hybridoma media alone (or isotype control for human control). MFI fold over media alone was determined for each clone supernatant tested.
(In general: Flow cytometry measures light scatter and fluorescence of single cells or particles in a stream.)

For experiment [4], the target named is T3, PD-L1-His (Acro Cat PDL-H5229) (human, UniProt Q9NZQ7 19-238).
T3 construct: also called human PD-L1 (SPR analyte); not shown: His tag
Kind of experiment: SPR (Biacore 4000), antibody captured on anti-human CM4 chip, PD-L1-His analyte, 37° C. The method, then:
The binding affinities of the generated antibodies to human PD-L1 were determined by surface plasmon resonance. […] PD-L1-His (Acro Cat PDL-H5229) was tested for binding in a 3-fold titration series up to 100 nM. Data were collected in HBS-P (pH 7.4) at 37° C. and 25° C.
Background: In SPR one partner is held on a chip, and binding of the other changes the refractive index at the surface.

Experiment [5] deals with T2, 6xHis-tagged huPD-L1. As to the kind of experiment: ELISA, plate-coated human PD-L1 (1 µg/mL), OD 450 nm, B7 ligand specificity panel. The method, then:
as §1
(§2) Briefly, wells of a 96-well plate (Corning 3690) were incubated with 30 μL human PD-L1 (RD Systems 9049-B7), human PD-L2 (RD Systems 9075-PL), human B7-1/CD80 (RD Systems 9050-B1), human B7-2/CD86 (RD Systems 9090-B2), human B7-H2 (RD Systems 8206-B7), or human B7-H3 (RD Systems 1949-B3), at a concentration of 1 μg/mL in PBS, overnight at 4C, to coat the wells with ligand. After washing and blocking steps, 30 μL of antibody at 8 concentrations ranging from 1 ng/mL to 3 mg/mL were added to the plate and incubated at room temperature for 1 hr. Bound human antibody was detected as described above.

The target in experiment [6] is T4, human B7-2/CD86 (RD Systems 9090-B2) (human, UniProt P42081 24-247, limits assumed).
T4 sequence (looked up): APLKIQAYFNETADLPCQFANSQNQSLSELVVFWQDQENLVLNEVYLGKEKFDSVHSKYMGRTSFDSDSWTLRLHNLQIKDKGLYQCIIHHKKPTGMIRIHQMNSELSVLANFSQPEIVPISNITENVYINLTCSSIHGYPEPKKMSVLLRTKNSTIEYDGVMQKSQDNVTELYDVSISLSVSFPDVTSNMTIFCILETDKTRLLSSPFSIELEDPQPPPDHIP
Kind of experiment: ELISA, plate-coated human B7-2/CD86 (1 µg/mL), OD 450 nm, B7 ligand specificity panel. The method, then: as §1, §2

As usually defined, the EC50 is the concentration giving half of the maximal effect. The low end stands for higher potency in that assay, the high end for lower potency in that assay. In general, Kd refers to the equilibrium constant for the complex coming apart. What is called koff is the rate constant with which the complex falls apart. Read a low koff as a long-lived complex. For orientation: kon means the second-order rate constant of association. Read a low kon as slower complex formation.

T3 sequence (Q9NZQ7 19-238 limits assumed): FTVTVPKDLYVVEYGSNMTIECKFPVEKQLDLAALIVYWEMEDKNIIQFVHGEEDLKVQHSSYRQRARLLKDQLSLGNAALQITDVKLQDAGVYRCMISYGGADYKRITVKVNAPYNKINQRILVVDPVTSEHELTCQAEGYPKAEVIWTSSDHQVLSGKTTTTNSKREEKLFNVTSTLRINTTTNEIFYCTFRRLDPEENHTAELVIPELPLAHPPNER
T1 sequence (Q9NZQ7 19-290): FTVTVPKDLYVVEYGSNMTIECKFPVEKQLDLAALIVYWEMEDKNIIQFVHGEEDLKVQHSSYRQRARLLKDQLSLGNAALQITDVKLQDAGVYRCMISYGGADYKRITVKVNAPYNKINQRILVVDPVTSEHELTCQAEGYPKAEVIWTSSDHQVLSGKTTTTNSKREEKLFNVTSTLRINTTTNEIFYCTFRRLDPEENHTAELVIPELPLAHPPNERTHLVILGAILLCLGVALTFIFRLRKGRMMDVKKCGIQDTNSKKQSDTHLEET
T2 sequence (Q9NZQ7 19-238): as the sequence (Q9NZQ7 19-238 limits assumed) above

B1: 1P9 (antibody, V domains shown)
VH: EVQLVESGGGLVQPGGSLRLSCAASGFTFSTYWMSWVRQAPGKGLEWVANIKQDGGERYYVDSVKGRFTISRDNAKSSLYLQMNSLRAEDTALYYCARLRLYSDYEDYWGQGTLVTVSS
VL: DIQMTQSPSSVSASVGDRVTITCRASQGISSWLAWYQQKPGKAPKLLIYSVSSLQSGVPSRFSGSGSGTDFTLTISSLQPEDSATYYCQQANSLPPTFGGGTKVEIK
notes: Recombinant full-length human antibody expressed in CHO K1 GS KO cells, with wild-type human Fc; also called anti-PD-L1 antibody 1P9; Unconj; 1P9
Consider B1, for which, in experiment [1], the “EC50 of luminescence (RLU), PD-1:PD-L1 Blockade Bioassay (PD-L1 aAPC/CHO-K1 cells with PD-1 Effector Jurkat NFAT-luciferase cells)” value stood at 0.067 µg/mL. The EC50 is 0.0359 µg/mL in the experiment with 6xHis-tagged huPD-L1 [2], 0.0199 µg/mL in experiment [3], 0.0953 µg/mL with 6xHis-tagged huPD-L1 [5] and 1.14 µg/mL in experiment [6]. Besides, the Kd in experiment [4] was 1.1 nM. Moreover, the off-rate constant (koff) in experiment [4] is 0.00037 s⁻¹. The molecule further yielded an association rate constant (kon) in experiment [4] of 330000 M⁻¹ s⁻¹.
